Source: article doi:10.1101/2024.08.10.607320

Assays:
[1] = target: Collagen I (triple helix of two α1 chains and one α2 chain) (UniProt P02454); test: AFM adhesion force
[2] = target: Collagen I (triple helix of two α1 chains and one α2 chain) (UniProt P02454); test: SPR

Chain of Collagen I (triple helix of two α1 chains and one α2 chain) (P02454 152-1207, chain 1 of 2): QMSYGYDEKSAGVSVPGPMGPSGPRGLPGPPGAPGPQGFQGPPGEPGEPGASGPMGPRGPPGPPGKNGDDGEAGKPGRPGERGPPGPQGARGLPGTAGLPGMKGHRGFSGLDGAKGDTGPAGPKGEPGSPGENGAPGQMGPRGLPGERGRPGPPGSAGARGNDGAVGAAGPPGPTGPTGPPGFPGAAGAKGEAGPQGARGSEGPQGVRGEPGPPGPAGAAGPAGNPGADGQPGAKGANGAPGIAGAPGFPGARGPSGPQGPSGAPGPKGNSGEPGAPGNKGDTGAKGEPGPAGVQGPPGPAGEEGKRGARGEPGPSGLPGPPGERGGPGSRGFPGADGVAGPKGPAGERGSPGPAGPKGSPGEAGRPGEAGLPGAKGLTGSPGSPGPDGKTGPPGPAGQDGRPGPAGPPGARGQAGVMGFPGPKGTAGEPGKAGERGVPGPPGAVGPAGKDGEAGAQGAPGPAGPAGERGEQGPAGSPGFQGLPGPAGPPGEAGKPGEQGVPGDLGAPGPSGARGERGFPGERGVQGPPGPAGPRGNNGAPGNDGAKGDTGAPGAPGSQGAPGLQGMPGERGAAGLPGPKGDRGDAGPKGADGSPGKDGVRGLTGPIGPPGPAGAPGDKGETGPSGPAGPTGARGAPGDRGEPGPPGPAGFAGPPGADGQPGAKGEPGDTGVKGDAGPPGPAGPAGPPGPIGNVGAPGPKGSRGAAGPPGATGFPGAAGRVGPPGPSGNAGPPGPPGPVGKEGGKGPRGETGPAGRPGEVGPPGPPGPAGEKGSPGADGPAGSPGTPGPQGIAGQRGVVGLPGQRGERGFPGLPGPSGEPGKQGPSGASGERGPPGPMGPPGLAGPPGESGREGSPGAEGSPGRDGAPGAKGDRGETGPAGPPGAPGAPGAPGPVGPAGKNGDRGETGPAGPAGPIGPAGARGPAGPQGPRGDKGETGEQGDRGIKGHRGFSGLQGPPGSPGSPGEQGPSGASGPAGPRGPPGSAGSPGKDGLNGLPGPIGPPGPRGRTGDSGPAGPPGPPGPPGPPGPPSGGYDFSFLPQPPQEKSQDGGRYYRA
Chain of Collagen I (triple helix of two α1 chains and one α2 chain) (P02466 86-1125, chain 2 of 2, further chain): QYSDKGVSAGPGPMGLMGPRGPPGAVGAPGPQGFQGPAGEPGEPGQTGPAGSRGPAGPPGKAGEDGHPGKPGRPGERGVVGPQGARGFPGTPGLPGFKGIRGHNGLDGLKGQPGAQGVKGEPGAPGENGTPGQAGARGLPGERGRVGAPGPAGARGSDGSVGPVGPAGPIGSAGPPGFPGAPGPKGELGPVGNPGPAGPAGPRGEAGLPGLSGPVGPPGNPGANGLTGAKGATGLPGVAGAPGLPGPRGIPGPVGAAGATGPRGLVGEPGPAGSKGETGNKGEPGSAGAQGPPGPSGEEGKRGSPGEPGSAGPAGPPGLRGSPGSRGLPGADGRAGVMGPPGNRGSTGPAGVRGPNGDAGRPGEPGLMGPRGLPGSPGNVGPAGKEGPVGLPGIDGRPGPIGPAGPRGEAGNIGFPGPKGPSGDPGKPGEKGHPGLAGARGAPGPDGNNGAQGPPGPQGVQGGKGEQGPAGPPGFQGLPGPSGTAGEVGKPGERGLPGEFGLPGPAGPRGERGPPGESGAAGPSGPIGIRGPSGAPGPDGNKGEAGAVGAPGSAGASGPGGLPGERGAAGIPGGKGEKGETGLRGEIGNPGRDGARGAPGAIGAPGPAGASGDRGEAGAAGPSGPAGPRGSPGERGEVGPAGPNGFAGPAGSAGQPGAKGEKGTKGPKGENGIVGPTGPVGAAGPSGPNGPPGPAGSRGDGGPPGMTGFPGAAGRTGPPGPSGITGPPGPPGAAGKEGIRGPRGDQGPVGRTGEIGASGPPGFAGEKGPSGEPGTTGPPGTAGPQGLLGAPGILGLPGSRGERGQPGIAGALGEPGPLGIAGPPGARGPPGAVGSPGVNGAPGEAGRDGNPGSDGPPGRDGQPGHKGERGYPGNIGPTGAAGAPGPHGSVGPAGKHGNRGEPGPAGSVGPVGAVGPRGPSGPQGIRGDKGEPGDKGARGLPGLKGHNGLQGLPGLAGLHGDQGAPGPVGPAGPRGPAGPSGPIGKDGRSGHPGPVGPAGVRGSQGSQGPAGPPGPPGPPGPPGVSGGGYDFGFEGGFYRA

**Q.** How did the peak force (maximum unbinding force) [1] turn out when “Amylin1-37 (human islet amyloid polypeptide), recombinant, monomer (from UniProt P10997 34-70)” was run?
**A.** 3.5 nN

**Q.** And the Kd [2]?
**A.** 6.27 µM
